# The nanobody polyreactivity screen of Harvey et al. (2022)
# Experiment: yeast display, Sf9 membrane polyspecificity reagent, FACS + sequencing; frameworks hold sequencing errors
# Procedure, shortened: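 Polyreactivity labels are assigned by the sorting gate from which each nanobody was recovered. The gates were low and high (top ~1%), set on anti-HA fluorescence for expression and streptavidin fluorescence for reagent binding. Before sorting, galactose-induced (36–48 hours) yeast display cells were stained for 1 hour at 4 °C with 10% biotinylated, detergent-solubilized Sf9 membrane reagent.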
row,Sequence,polyreactivity (PSR sort gate)
1,QVQLVESGGGLVQAGGSLRLSCAASGRIFSGYAMGWYRQAPGKERELVATITSGGGTYYADSVKGRFTISRDNAKNTVYLQMNSLKPEDTAVYYCNAEKKGSFRKYNYWGQGTQVTVSS,low polyreactivity
2,QVQLVESGGGLVQAGGSLRLSCAASGRIFSINAMGWYRQAPGKERELVAAITWSGGSTYYADSVKGRFTISRDNAKNTVYLQMNILKPEDTAVYYCAARLPWYIPTPSYRIAGGNYWGQGTQVTVSS,low polyreactivity
3,QVQLVESGGGLVQAGGSLRLSCAASGRIFSINTMGWYRQAPGKERELVAAISVSGGRTYYADSVKGRFTISRENAKKSVYVQMNSLKPEVTAGYYCGAYGTTRMDYWGQGTQVTVSS,high polyreactivity
4,QVQLVESGGGLVQAGGSLRLSCAASGRIFSIYAMGWYRQAPGKERELVAAIRSVGDTNYADSVKGRFTISRDNAKNTVYLQMNSLNPEDTAVYYCAAGTSDGGYHYDFWGQGSQVTVSS,high polyreactivity
5,QVQLVESGGGLVQAGGSLRLSCAASGRIFSIYAMGWYRQAPGKERELVAAISSRGGSTYYADSVKGRFTISRDNAKNTVYLQMNSLKPEDTAVYYCNAVSWEGYDFDYWGQGTQVTVSS,high polyreactivity
6,QVQLVESGGGLVQAGGSLRLSCAASGRIFSIYAMGWYRQAPGKERELVAAITRGGRTNYADSVKGRFTISRDNAKNTVYLQMNSLKPEDTAVYYCAARRIDGVVKPYDYWGQGTQVTVSS,low polyreactivity
7,QVQLVESGGGLVQAGGSLRLSCAASGRIFSKNAMGWYRQAPGKEMEFVATISYGDGSTYYADSVKGRFTISRDNAKNTVYLQMNSLKPEDTAVYYCAATIGHNGFDYWGQGTQVTVSS,low polyreactivity
8,QVQLVESGGGLVQAGGSLRLSCAASGRIFSKNAMGWYRQAPGKVRELVAAISYITGSTYADSVKGRFKISRDNAKNTDYLQMNSLKPEYTAVYYCAASSTWYGYYIYVFRAYDYWGQGTQLTVSS,low polyreactivity
9,QVQLVESGGGLVQAGGSLRLSCAASGRIFSKYGMGWYRQAPGKETEFVAAISGSGTNTYYADSVKGRFTISRDNAKNTVYLQMNSLKPEDTAVYYCAKRKSVRSTPSYEYWGQGTQVTVSS,high polyreactivity
10,QVQLVESGGGLVQAGGSLRLSCAASGRIFSLYTMGWYRQAPGKERELVATINRSSVSTRYADSVKGRFTISRDNAKNTGYLQMNSLKPEDTAVYYCAAQRSTRYPLYYWGQGTQVTVSS,high polyreactivity
11,QVQLVESGGGLVQAGGSLRLSCAASGRIFSLYTMGWYRQAPGKERELVATISIGGSTNYADSVKGRFTISRDNAKNTVYLQMNSLKPEDTAVYYCATDGSIGYNDRYTNDFDYWGQGTQVTVSS,low polyreactivity
12,QVQLVESGGGLVQAGGSLRLSCAASGRIFSNNAMGWYRQAPGKERELVAAISSSGSTYYADSVKGRFTISRDNAKNTVYLQINSLKPEDTAVYYCAVVYGYPYLRGYVFGFNYWGQGTQVTVSS,low polyreactivity
13,QVQLVESGGGLVQAGGSLRLSCAASGRIFSNNAMGWYRQAPGKERELVAASNRSGDGTYYADSVKGRFTSSRDHAKNTVYLQMNSLKPEDTAVYYCAVRYYWGYTSYGYWGQGTQVTVSS,high polyreactivity
14,QVQLVESGGGLVQAGGSLRLSCAASGRIFSNNDMGWYRQAAGKERELVAAISKNGGRTYYADSVKGRFTISRDNAKNTVYLQMNSLKPEDTAVYYCAAPVKPVTGYYPYDYWGQGTQVTVSS,high polyreactivity
15,QVQLVESGGGLVQAGGSLRLSCAASGRIFSPYAMGWYRQAPGKERELVAAITSSGGSTYYADSVKGRFTISRDNAKNTVYLQMNSLKPEDTAVYYCNARRGRYTPSVNYWGQGTQVTVSS,high polyreactivity
16,QVQLVESGGGLVQAGGSLRLSCAASGRIFSPYVMGWYRQAPGKERELVAAITGSGGSTYYADSVKGRFTISRDNAKKTVYLQMNSLKPEDTAVYYCAVVSRTTAMDYRGQGTQVTVSS,high polyreactivity
17,QVQLVESGGGLVQAGGSLRLSCAASGRIFSQYAMGWYRQAPGKEREFVASISRSGGRTYYADSVKGRFTISRDNAKNTVYLQMNSLKPEDTAVYYCAARAETRYYTYNYWGQGTQVTVSS,high polyreactivity
18,QVQLVESGGGLVQAGGSLRLSCAASGRIFSRNAMGSYRQAPGKERELVAAITSGGSTYYADYVKGRFTISSDNAKNTVYLQLNSLKPEDTAVYTVKILRYDYWGQGTQVTVSS,high polyreactivity
19,QVQLVESGGGLVQAGGSLRLSCAASGRIFSRNAMGWYRQAPGKERELVAAISRSGTSTYYADSVKGRFTISRDNAKNTVYLQMNSLKPEDTAVYYCAAYPYYDRDYWGQGTQVTVSS,low polyreactivity
20,QVQLVESGGGLVQAGGSLRLSCAASGRIFSRYAMGLYRQAPGKERELVAAISWSGGSTYYADSVKGRFTISRDNAKNTVYLQMNSLNTEDTAVYYCAPPIKGSDSKYGYWGQCTQVTVSS,high polyreactivity
21,QVQLVESGGGLVQAGGSLRLSCAASGRIFSRYAMGWYRQAPGKERELVAAISRSGGSTYYADSVKGRFTISRDNAKNTVYLQMNSLKPEDTAVYYCAARNVFSYPPGSYYYWGQGTQVTVSS,high polyreactivity

row,Sequence,polyreactivity (PSR sort gate)
1,QVQLVESGGGLVQAGGSLRLSCAASGRIFSRYAMGWYRQAPGKERELVAAISWSGGSTYYADSVKGRFTISRDNAKNTVYLQINSLKPEDTAVYYCAAKRQYTEYNYWGQGTQVTVSS,high polyreactivity
2,QVQLVESGGGLVQAGGSLRLSCAASGRIFSRYAMGWYRQAPGKERELVAAITQSGTSTYYADSVKGRFTISRDNAKNTVYLQMNSLKPEDTAVYYCNAYRQYRYDYWGQGTQVTVSS,low polyreactivity
3,QVQLVESGGGLVQAGGSLRLSCAASGRIFSRYAMGWYRQAPGKERELVATISSGGGTYYADSVKGRFTISRDNAKNTVYLQMNSLKPEDTAVYYCAAASYSGHGRYDDWGQGTQVPVSS,high polyreactivity
4,QVQLVESGGGLVQAGGSLRLSCAASGRIFSRYAMGWYRQAPGKERELVATISSSRGGTSTNYADSVKGRFTISRDNAKNTVYLQMNSLKPEDTAVYYCNALYGRQIVDYDYWGQGTQVTVSS,low polyreactivity
5,QVQLVESGGGLVQAGGSLRLSCAASGRIFSRYAMGWYRQAPGKERELVATITISGGSTYYADSVKGRFTISRDNAKNTVYLQMNSLKPEDTAVYYCAAETTASYYKRTDDYDYWGQGTQVTVSS,low polyreactivity
6,QVQLVESGGGLVQAGGSLRLSCAASGRIFSRYAMGWYRQAPVKERELVADITYNGGSTYYADSVKGRFTISRDNAKHTVYLQMNSLQPDDTAVYYCNAVEVLDEGWGFWYYYWGQATQVTVSS,high polyreactivity
7,QVQLVESGGGLVQAGGSLRLSCAASGRIFSRYTMVWYRQAPRKERELVAAISSSGGSTYYADSVKGRFTISRDNAKNTVYLQMNSLKQEDTAVYYCAARQYIGSPPHRRRFDYWGQGTQVTVSS,high polyreactivity
8,QVQLVESGGGLVQAGGSLRLSCAASGRIFSSNAMGWYRQAPGKARELVAAISTSGSTKYADSVKGRFTSSRDNAKNTVYLLMNSLKPEDTAVYYCAAKGYEYRYRYDYWGQGTQVTVSW,high polyreactivity
9,QVQLVESGGGLVQAGGSLRLSCAASGRIFSSYAMGWYRQAPGKERELVAAISSRGGSTYYADSVKGRFTISRDNAKNTVYLQMNSLKPEDTAVNYCAKGLTALGDYWGQCTQVTVSS,high polyreactivity
10,QVQLVESGGGLVQAGGSLRLSCAASGRIFSSYAMGWYRQAPGKERELVASIDWSDGSTYYADSVKGRFTIARDNAKNTVYLQMTSLKPEDTAVYYCAADFVPYLIYGYWGQGTQVTVTS,low polyreactivity
11,QVQLVESGGGLVQAGGSLRLSCAASGRIFSSYAMGWYRQEPGKERELVAVIRWSSGSTYYADSVKGRFTISRDNAKNTVYLQMNSLKPEDTAVYYCAALRRRSTKFEHDYWGQGTQVTVSS,high polyreactivity
12,QVQLVESGGGLVQAGGSLRLSCAASGRIFSSYDMGWYRQAPGKERELDAAISSRTGITNYADSVKGRFTISRDNAKNTVYLQMNSLKPEDTAVYYCAKVGWYGYTRSYKYGYWGQGTQVTVSS,high polyreactivity
13,QVQLVESGGGLVQAGGSLRLSCAASGRIFSTNAMGWYIQAPGKERELVAAISKNGGRTYYADSVKWRFTISRDNAKNTVYLQMNSLKPEDTAVYYCAAPVKPVTGYYPYDYWGQGTQVTVSS,high polyreactivity
14,QVQLVESGGGLVQAGGSLRLSCAASGRIFSTNAMGWYRQAPGKERELVARINSGGGSTYADSVKGRFTISRDNAKNTVYLQMNSLKPEDTAVYYCAASRRFQWRAYGYWGQGTQVTVSS,high polyreactivity
15,QVQLVESGGGLVQAGGSLRLSCAASGRIFSTNAMGWYRQAPGTERELVAAISRRGASTYYADSVKGRFTISRDNAKNTVYLQMNSLKPEDTAVYYCAAVIGTGGRYNYWGQGTQVTVSS,high polyreactivity
16,QVQLVESGGGLVQAGGSLRLSCAASGRIFSTYVMGWYRQAPGKERELVAAITRGGSTNYADSVKGRFTISRDNAKNTVYLQMNSLKPEDTAVYYCNAQRRGTYYWGQATQVTVSS,high polyreactivity
17,QVQLVESGGGLVQAGGSLRLSCAASGRIFSVYAMGWYRQAPGKEREFVAAITKGGVGTYYADSVKGRFTISRDHAKNSVYLQMNSLKPEDTAVYYFAARHYYGADRYYSWGQGTQVTVSS,high polyreactivity
18,QVQLVESGGGLVQAGGSLRLSCAASGRIFSWYAMGWYRQAPGKERELVADITNGGSTYYADSVKGRFTISRDNAKNTVYLQMNSLKPEDTAVYYCAAAYIHRLGRVLPSVYSIGRDYWGQGTQVTVSS,low polyreactivity
19,QVQLVESGGGLVQAGGSLRLSCAASGRIFSWYTMGWYRQAPGKERELVASITTGGRTYYADSLKGRFTNSRDNAKNTVYLQMNSLKPEDTAVYSCIVLSTLFGYYRWGDYWGQGTQVTVSS,high polyreactivity
20,QVQLVESGGGLVQAGGSLRLSCAASGRIFSYMGWYRQAPGKERELVASISWSGGSTYYADSVKGRFTISRDNAKNTVYLQMNSLKPEDTAVYYCAAYLRSYVRYYYWGQGTQVTVSS,high polyreactivity
